One assay has as its system MAPK. Nature of the assay: MAPK phosphorylation in parental NIH3T3 fibroblasts lacking both Ret and GFRα1. Format: cell-based. The following applies: GDNF 100 ng/ml alone. As to the method: (§1) To assess GDNF-dependent MAPK and CREB phosphorylation in all studied cell lines, the semiconfluent cell monolayers were starved for 3 hours in serum-free medium, and then GDNF was applied for the indicated time. For the analysis of MAPK and CREB activation in Ret^−/− animals the DRG neurons were dissected from E18 mice and maintained in NGF-containing medium for 2 hours. After this time the neurons were deprived of NGF by placing them in NGF-free medium in the presence of anti-NGF antibodies. After 2 hr without NGF, the neurons were stimulated with GDNF. In the experiments involving Src-kinase inhibition, a Src-family kinase inhibitor PP2 was added at the indicated concentrations to the cell monolayers 5 min before GDNF application. In some experiments 1 μg/ml of soluble GFRα1 lacking a GPI anchor (GFRα1/Fc chimeric protein; R&D systems) was added 5 min prior to the GDNF application and was kept in the solution during the GDNF treatment, After stimulation, the cells were briefly washed with PBS/sodium vanadate and lysed in the buffer containing TBS, 2 mM EDTA, 1% NP-40, 1% Triton X-100, 1 mM PMSF, 1 mM Na3VO4 and a Complete, protease inhibitors cocktail (Boehringer Mannheim). Total cell protein for each extract was measured by MicroBSA (Pierce) and an equivalent amount of protein was resolved electrophoretically on 10% polyacrylamide gels. […]

Another assay concerns PLCγ. Nature of the assay: PLCγ tyrosine phosphorylation (immunoprecipitation and Western blotting) in SHEP cells. Format: cell-based, human. On the procedure: To determine changes in GDNF-evoked PLCγ tyrosine phosphorylation the Western blotting assays were performed as described in Khare et al. (1997). Briefly, SHEP neuroblastoma cells were pre-incubated with 1 mM sodium vanadate in serum-free medium for 30 min. at 37 ° C. and then were treated at 37 ° C. with 1-100 ng/ml GDNF for 1 min. unless otherwise indicated. Incubation was stopped by the addition of ice-cold PBS buffer containing 1 mM sodium vanadate. Whole cell lysates (final protein concentration 0.1-0.3 mg/ml) were prepared at 4° C. in an extraction buffer (pH 7.5) containing 50 mM Tris-HCl, 137 mM NaCl, 1 mM sodium vanadate, 1 mM PMSF, 10% glycerol, 1% NP-40 and protease inhibitors cocktail (Boehringer). Phosphotyrosine-containing proteins were immunoprecipitated with 4G-10 antibodies (Upstate Biotechnology), collected with Protein A Sepharose beads and separated on the 7.5% SDS-PAGE. The proteins were transferred to Hybond-ECL nitrocellulose membrane, and PLCγ was assessed by Western blotting using anti-PLCγ antibodies (Upstate Biotechnology). In some experiments we first immunoprecipitated PLCγ from the cell lysate using anti-PLCγ antibodies and probed the filter with anti-phosphotyrosine 4G-10 antibodies as described above. […]

In the next assay the test system is p42/p44 MAPK. The assay can be described thus: MAPK phosphorylation assay in SHEP neuroblastoma cells. The following applies: GDNF 100 ng/ml. Format: cell-based, human. As to the method:
as §1

Assay [1] relates to CREB-related protein ATF-1. Nature of the assay: ATF-1 phosphorylation in SHEP cells. Format: cell-based, human. The note with it: GDNF treatment. As to the method: as §1
The subject of assay [2] is CREB. The assay can be described thus: CREB Ser-133 phosphorylation assay in SHEP cells. It is filed as cell-based, human. The note with it: GDNF treatment. As to the method:
as §1

The test system of assay [3] is CREB. The assay can be described thus: CREB Ser-133 phosphorylation assay in Ret^−/− DRG neurons. It is filed as cell-based, mouse. The following applies: after GDNF treatment. As to the method: as §1

“Also recorded” adds a separate entry of the source.

B1: Glial cell line—derived neurotrophic factor (protein, UniProt P39905 78-211, looked up)
Glial cell line-derived …: SPDKQMAVLPRRERNRQAAAANPENSRGKGRRGQRGKNRGCVLTAIHLNVTDLGLGYETKEELIFRYCSGSCDAAETTYDKILKNLSRNRRLVSDKVGQACCRPIAFDDDLSFLDDNLVYHILRKHSAKRCGCI
notes: TGF-β family-related neurotrophic protein; from PeproTech and donated by Cephalon, Inc
B1: the MAPK phosphorylation entry in the assay with MAPK is listed as “did not evoke any MAPK phosphorylation”. Besides, in the assay with PLCγ (GDNF), the “time to return to basal tyrosine phosphorylation levels of PLCγ” value was at most 5 min. Moreover, the PLCγ tyrosine phosphorylation result in the assay with PLCγ (GDNF 1-100 ng/ml, 1 min) is listed as “significantly increased PLCγ tyrosine phosphorylation; also recorded: dose-dependent increase in PLCγ tyrosine phosphorylation”. Further, the “p42/p44 MAPK phosphorylation” value with p42/p44 MAPK was “transient and profound increase of p42/p44 MAPK phosphorylation”. Also, the “phosphorylation / activation of ATF-1” value in assay [1] is recorded as “induced phosphorylation of the CREB-related protein ATF-1; also recorded: robust GDNF-dependent activation of the CREB-related protein ATF-1”. Further, in the assay on CREB [2], the “phosphorylation of CREB in Ser-133 site” value is given as “potently induced phosphorylation of CREB”. The “CREB phosphorylation in Ser-133” value in the assay with CREB [3] is reported as “increased substantially already at 5 min”.
